Patent US20140056903A1 (Regeneron, published 2014)
Positions count from the first letter of the chain named. Names may count otherwise.

T1: monkey GFRα3 expressed with a C-terminal myc-myc-hexahistidine tag (monkey (Mf), UniProt O60609 32-374 (human entry), limits assumed)
T1 construct: also called MfGFRα3-mmh; MfGFRα3-mmH
T1 chain: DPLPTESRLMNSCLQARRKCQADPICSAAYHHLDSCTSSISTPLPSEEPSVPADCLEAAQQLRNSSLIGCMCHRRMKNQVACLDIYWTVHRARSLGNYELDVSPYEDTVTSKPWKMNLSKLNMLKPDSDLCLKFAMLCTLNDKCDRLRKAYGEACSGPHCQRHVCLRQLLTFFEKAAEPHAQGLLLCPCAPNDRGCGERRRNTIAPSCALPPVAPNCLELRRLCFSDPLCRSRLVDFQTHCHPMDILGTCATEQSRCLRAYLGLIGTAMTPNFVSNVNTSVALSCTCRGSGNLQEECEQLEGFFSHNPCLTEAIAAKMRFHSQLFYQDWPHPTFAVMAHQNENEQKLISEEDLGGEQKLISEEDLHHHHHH

T2: human GFRα3 expressed with a C-terminal mFc tag (human)
T2 construct: also called hGFRα3-mFc
T2 chain: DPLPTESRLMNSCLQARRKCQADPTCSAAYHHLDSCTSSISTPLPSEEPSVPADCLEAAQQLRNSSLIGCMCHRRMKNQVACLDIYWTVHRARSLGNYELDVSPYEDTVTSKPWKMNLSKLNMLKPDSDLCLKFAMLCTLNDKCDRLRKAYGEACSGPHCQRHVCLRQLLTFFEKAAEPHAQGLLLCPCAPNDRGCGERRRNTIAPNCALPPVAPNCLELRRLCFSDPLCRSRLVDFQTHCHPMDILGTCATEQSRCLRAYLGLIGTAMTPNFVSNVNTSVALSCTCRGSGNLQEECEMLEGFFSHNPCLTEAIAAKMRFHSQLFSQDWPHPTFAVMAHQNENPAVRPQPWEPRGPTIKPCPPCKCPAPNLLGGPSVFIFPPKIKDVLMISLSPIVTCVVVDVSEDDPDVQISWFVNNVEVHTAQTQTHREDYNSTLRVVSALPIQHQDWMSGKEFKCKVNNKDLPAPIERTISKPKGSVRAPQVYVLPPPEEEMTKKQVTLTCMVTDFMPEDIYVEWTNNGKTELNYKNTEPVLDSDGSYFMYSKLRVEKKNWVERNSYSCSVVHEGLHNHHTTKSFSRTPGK

B1: H4H2355S (antibody, human IgG4, V domains shown)
VH: EVQLVESGGGLVQPGGSLRLSCAASGFTFSSYAMSWVRQVPGKGLEWVSAISGSGDNTYNAESVKGRFTISRDNSKNMLYLQMNSLRAEDTAVYYCAKTKFSSSLLFDYWGQGTLVTVSS
VL: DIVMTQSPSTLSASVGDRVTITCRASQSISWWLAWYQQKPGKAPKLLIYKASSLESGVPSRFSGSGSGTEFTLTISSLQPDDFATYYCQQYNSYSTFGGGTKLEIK
notes: human IgG4 Fc (H4H)
B2: H4H2291S (antibody, human IgG4, V domains shown)
VH: EVQLVESGGGLVQPGESLRLSCAASGFTFSNYAMSWVRQAPGKGLEWVSVISGSGGSTYYADSVKGRFTMSRDNSKNTLYLQMNSLRAEDTAVYYCAKPPSRAARYFNYGMDVWGQGTTVTVSS
VL: AIRMTQSPSSVSASVGDRVTITCRASQGISSWLAWYQQKPGKAPKLLIYAASSLQSGVPSRFSGSGSGTDFTLTISSLQPEDFATYYCQQANSFPFTFGGGTKVEIK
notes: human IgG4 Fc (H4H)
B3: H4H2295S (antibody, human IgG4, V domains shown)
VH: EVQLVESGGGLVQAGGSLRLSCVASGFTFSSYAMSWVRQAPGKGLEWVSAISGSGGSTYSADSVKGRFTISRDNSKNTLYLQMNSLRAEDTAVYYCTKPSSYSSSNFYYGMDVWGQGTTVTVSS
VL: B2 VL with A1D, R3Q, A50T, G68R, A91T, F94L, F96L, G100P
notes: human IgG4 Fc (H4H)
B4: H4H2357S (antibody, human IgG4, V domains shown)
VH: EVQLVESGGGLVQPGGSLRLSCAASTFTFSSYAMTWVRQAPGKGLEWVSSISGSGDSTYYADSVKGRFTISRDNSKNTLFLQMNSLRAEDTAVYYCAKKDGPGRYYVRYGMDVWGQGTTVTVSS
VL: B2 VL with A1D, R3Q, A50T, A51T, F96L, E105D
notes: human IgG4 Fc (H4H)
B5: H4H2296S (antibody, human IgG4, V domains shown)
VH: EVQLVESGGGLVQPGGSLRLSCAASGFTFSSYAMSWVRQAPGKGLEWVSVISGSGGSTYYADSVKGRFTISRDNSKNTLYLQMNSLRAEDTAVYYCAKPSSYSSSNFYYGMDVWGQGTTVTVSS
VL: B2 VL with A1D, R3V, Q55R, S76T, Q90H, A91T, G100P
notes: human IgG4 Fc (H4H)
B6: H4H2294S (antibody, human IgG4, V domains shown)
VH: B3 VH with A14P, V23A, A50V, S60Y, S63A, N77H, T118S
VL: B2 VL with A1D, R3Q, M4L, A91T, T97P, G100P, E105D
notes: human IgG4 Fc (H4H)
B7: H4H2342P (antibody, human IgG4, V domains shown)
VH: EVQLLESGGGLVQPGGSLRLSCAASGFTFSTYAMSWVRQAPGKGLEWVSAIRGNGVNTYYGDSMKGRFTISRDNSKDTLYLQMNSLRAEDTAVYYCAKNKWELLVFEYWGQGTLVTVSS
VL: DIQMTQSPSSLSASVGDRVTITCRASQDISNYLAWYQQKPGKVPKLLIYAASTLQSGVPFRFSGSGSGTDFTLTISSLQPEDVATYYCQKYNSAPPFGPGTKVDIK
notes: human IgG4 Fc (H4H)
B8: H4H2243N2 (antibody, human IgG4, V domains shown)
VH: QVQLVQSGAEVKKPGASVKVSCKASGYTFTSYGIIWVRQAPGQGLEWMGWISGYNGNTNYAQNLQGRVTMTTDTSTTTAYMELRSLRSDDTAVYYCARWGIATRPYYYYGMDVWGQGTTVTVSS
VL: DIQMTQSPSSLSASVGDRVTITCRASQDITNYLAWFQQKPGKAPKSLIYAASSLQSGVPSKFSGSGSGTDFTLTISSLQPEDFATYYCQQYNSYPPTFGPGTKVDIK
notes: human IgG4 Fc (H4H)

Tests used:
[1] = target: T3, human GFRα3 expressed with a C-terminal myc-myc-hexahistidine tag (human, UniProt O60609 32-374, biotinylated (sites not given) in ELISA format 2 and in the Octet cross-competition; not in SPR); assay: Octet cross-competition; biotin-hGFRα3-mmH pre-saturated with first antibody H4H2352S
T3 construct: also called hGFRα3-mmh; hGFRα3-mmH
Protocol: A cross-competition assay was conducted to assess the ability of select antibodies to compete with one another for binding to human GFRα3 using an Octet RED384 biosensor (Fortebio Inc.). The entire experiment was performed at 25° C. with the flow rate of 1000 rpm in Octet HBST buffer (0.01 M HEPES pH7.4, 0.15M NaCl, 3 mM EDTA, 0.05% v/v Surfactant P20, 0.1 mg/mL BSA). To assess whether 2 antibodies were able to compete with one another for binding to their respective epitopes on biotinylated recombinant human GFRα3 expressed with a C-terminal myc-myc-hexahistidine tag (biotin-hGFRα3-mmH; SEQ ID:370), around ˜1.2 nm of biotin-hGFRα3-mmH was first captured onto streptavidin-coated Octet sensor tips (Fortebio Inc, #18-5019) by submerging the tips for 1 minute into a 10 μg/mL solution of biotin-hGFRα3-mmH. The antigen coated sensor tips were then placed into wells containing 25 μg/mL solution of a first anti-GFRα3 monoclonal antibody for 4 minutes to saturate the biotin-hGFRα3-mmH surface. The sensor tips were then subsequently dipped into wells containing 25 μ/mL solution of a second anti-GFRα3 monoclonal antibody. The sensor tips were washed in Octet HBST buffer in between every step of the experiment. The real-time binding response was monitored during the course of the experiment and the binding response at the end of every step was recorded as shown in FIG. 9. The response of mAb-2 binding to biotin-hGFRα3-mmH pre-complexed with the first antibody was compared and competitive/non-competitive behavior of different anti-GFRα3 monoclonal antibodies was determined.

[2] = target: T3, human GFRα3 expressed with a C-terminal …; assay: SPR, Ab captured, 37C
Protocol: (§1) Antibodies were tested for binding to human GFRα3 expressed with either a C-terminal myc-myc-hexahistidine tag (hGFRα3-mmh; SEQ ID: 370, a C-terminal hFc tag (hGFRα3-hFc; SEQ ID:371), or a C-terminal mFc tag (hGFRα3-mFc; SEQ ID:372), as well as monkey GFRα3 expressed with a C-terminal myc-myc-hexahistidine tag (MfGFRα3-mmh; SEQ ID:373). Anti-GFRα3 antibodies were captured on either a goat anti-mouse IgG polyclonal antibody (GE Healthcare, #BR-1008-38) or a mouse anti-human IgG monoclonal antibody (GE Healthcare, #BR-1008-39) surface created through direct amine coupling to a Biacore CM5 sensor chip. Kinetic experiments were carried out using HBS-EP (10 mM HEPES, 150 mM NaCl, 3 mM EDTA, 0.05% Surfactant P20, at pH 7.4) or PBS buffer containing 0.05% v/v surfactant P20 as both the running buffer and the sample buffer. Binding to human GFRα3-mmh or monkey GFRα3-mmh was evaluated by injecting several concentrations ranging from 200 to 7.4 nM (3-fold dilutions) across the captured antibody surface. Binding to human GFRα3-mFc or human GFRα3-hFc was evaluated by injecting several concentrations ranging from 100 to 3.7 nM (3-fold dilutions) across the captured antibody surface. Antibody-antigen association was monitored for up to 4 minutes, while dissociation in buffer was monitored for up to 20 minutes. Kinetic association (kₐ) and dissociation (kd) rate constants were determined by processing and fitting the data to a 1:1 binding model using Scrubber 2.0c curve fitting software. Binding dissociation equilibrium constants (KD) and dissociative half-lives (t_{1/2}) were calculated from the kinetic rate constants as: KD (M)=kd/kₐ and t_{1/2} (min)=[ln 2/(60*kd)].

[3] = target: T1, monkey GFRα3 expressed with a …; assay: SPR, Ab captured, 37C
Protocol: as §1

[4] = target: T2, human GFRα3 expressed with a C-terminal …; assay: SPR, Ab captured, 37C
Protocol: as §1

Row | Binder | binding response of second antibody (nm) [1] [nm] | Kd [2] [nM] | koff [2] [s⁻¹] | kon [2] [M⁻¹ s⁻¹] | t1/2 [2] [min] | Kd [3] [nM] | koff [3] [s⁻¹] | kon [3] [M⁻¹ s⁻¹] | t1/2 [3] [min] | Kd [4] [nM] | koff [4] [s⁻¹] | kon [4] [M⁻¹ s⁻¹] | t1/2 [4] [min]
1 | B1 | 2.12 | 4.37 | 0.00123 | 281000 | 9 | 5.29 | 0.000913 | 173000 | 13 | 0.031 | 3.39e-05 | 1.1e+06 | 341
2 | B2 | 2.63 | 0.58 | 0.000323 | 558000 | 36 | 1.94 | 0.000693 | 357000 | 17 | 0.0289 | 3.84e-05 | 1.33e+06 | 301
3 | B3 | 2.31 | 1.77 | 0.00119 | 669000 | 10 | 20.4 | 0.00561 | 276000 | 2 | 0.0301 | 4.88e-05 | 1.62e+06 | 237
4 | B4 | 2.45 | 7.12 | 0.0021 | 295000 | 6 | 7.86 | 0.00135 | 172000 | 9 | 0.0793 | 9.4e-05 | 1.19e+06 | 123
5 | B5 | 2.35 | 0.802 | 0.000614 | 765000 | 19 | 10.3 | 0.00285 | 277000 | 4 | 0.0294 | 4.74e-05 | 1.61e+06 | 244
6 | B6 | 2.25 | 0.338 | 0.000261 | 773000 | 44 | 2.25 | 0.000974 | 433000 | 12 | 0.0209 | 3.46e-05 | 1.66e+06 | 334
7 | B7 | 2.08 | 2.03 | 0.000671 | 330000 | 17 | 11.1 | 0.00166 | 150000 | 7 | 0.0354 | 4.28e-05 | 1.21e+06 | 270
8 | B8 | 0.13 | 5.2 | 0.00244 | 469000 | 5 | – | – | – | – | – | – | – | –
